# Assay results as given in patent publication US20230137562A1, “TAU AGGREGATION INHIBITORS” (priority 2017, published 2023).
# Square brackets hold non-standard residues; d marks the D form. Ends that are not written are not given here. NMeR = CN[C@@H](CCCNC(=N)N)C(=O)O
# Columns and labels:
# [1] = target: His-Tau40P301L Tau (UniProt P10636-8 1-441); experiment: cell-based or functional assay
# [2] = target: T1, Ac-VQIINK-NH2; experiment: cell-based or functional assay
# T1 peptide: Ac-VQIINK-NH2
# Sequence of His-Tau40P301L Tau (P10636 other isoform, or with tags, fused parts or gaps limits assumed): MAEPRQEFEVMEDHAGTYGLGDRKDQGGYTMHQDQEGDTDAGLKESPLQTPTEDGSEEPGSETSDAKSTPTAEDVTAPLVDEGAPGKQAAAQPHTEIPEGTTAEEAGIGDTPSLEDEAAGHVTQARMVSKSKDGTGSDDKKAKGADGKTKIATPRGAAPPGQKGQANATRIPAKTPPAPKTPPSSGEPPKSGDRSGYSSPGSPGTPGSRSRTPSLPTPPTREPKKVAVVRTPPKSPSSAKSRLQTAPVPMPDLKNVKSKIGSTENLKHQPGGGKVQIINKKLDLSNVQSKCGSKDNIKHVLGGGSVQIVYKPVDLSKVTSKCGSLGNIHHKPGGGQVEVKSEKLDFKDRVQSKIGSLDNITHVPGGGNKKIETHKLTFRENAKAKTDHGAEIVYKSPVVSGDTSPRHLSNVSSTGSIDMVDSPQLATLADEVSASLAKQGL
Binder,"IC50 (µM), Tau40 assay (ThT) [1]","IC50 (µM), VQIINK Inhibition (ThT) [2]"
WRLKVRWW,1.24 µM,3.34 µM
RWRIWIW,0.76 µM,3.44 µM
WRI[NMeR]IRW [WRI(NMe)RIRW],0.57 µM,3.84 µM
WRIWIRRW,1.68 µM,3.85 µM
FRIRIRW,1.47 µM,4.04 µM
HRIWIRYW,1.87 µM,4.3 µM
LRIRIRW,2.07 µM,4.31 µM
WKVWVRYW,2.09 µM,4.93 µM
RRIWIRYW,1.96 µM,5.61 µM
RYRIWIW,1.61 µM,5.74 µM
WRIRIRL,1.52 µM,7.38 µM
WRIFIRW,2.01 µM,9.13 µM
LRIRIRL,1.82 µM,17.8 µM
